B1: lacritin: recombinant human lacritin from E. coli; mature 119 residue fragment (SEQ ID NO:10) of native lacritin SEQ ID NO:4 (protein, listed as Homo sapiens)
chain: EDASSDSTGADPAQEAGTSKPNEEISGPAEPASPPETTTTAQETSAAAVQGTAKVTSSRQELNPLKSIVEKSILLTEQALAKAGKGMHGGVPGGKQFIENGSEFAQKLLKKFSLLKPWA
B2: N-24: deletion mutant comprising a deletion of the 24 amino terminal amino acids of lacritin (protein)
chain: DSTGADPAQEAGTSKPNEEISGPAEPASPPETTTTAQETSAAAVQGTAKVTSSRQELNPLKSIVEKSILLTEQALAKAGKGMHGGVPGGKQFIENGSEFAQKLLKKFSLLKPWA
modifications: homo sapiens
notes: deletion mutant comprising a deletion of the 24 amino terminal amino acids of lacritin

Assays:
PKCα = assay: Phospho-PKCα blot of HSG cell lysates; assay type: cell-based, human; details: for concentration of optimal dephosphorylation: increasing molar levels
Procedure: For phosphotyrosine blotting and mitogenesis assays, cells in serum-containing media were seeded overnight in 24-well plates at a density of 0.5×10^5 cells/mm^2 corresponding to 20-30% confluency after cell attachment, incubated in serum-free media without supplements for 24 h (phosphotyrosine) or washed with serum-free media without supplements three times (mitogenesis) and incubated with lacritin (1-1000 nM), or positive controls EGF (1.6 nM) and 10% fetal bovine serum, or negative controls bovine serum albumin or no additive in serum-free media without supplements for the indicated times (phosphotyrosine) or 30 h (mitogenesis). For phosphotyrosine assays, cells were extracted in 1% NP40 containing sodium vanadate (2 mg/ml), DTT (5 mg/ml), protease inhibitors, 50 mM HEPES, 100 mM NaCl, and 2 mM EDTA; then separated by 10% SDS PAGE, transferred and blotted. The following antibodies (Cell Signaling Technology, Beverly Mass.) were tested: antiphosphotyrosine antibody (P-Tyr-100), anti-phospho-PKC αβII, anti-PKCα, anti-phospho-PKCδ, anti-phospho-PKC (pan), anti-p44/42 MAPK, anti-phospho-Raf, anti-phospho-SAPK/JNK, anti-phospho-p38 Map kinase, anti-phospho-Raf, anti-phospho-Akt, anti-phospho-CaMKII, anti-phospho-MARCKS, or anti-tubulin (loading control). After washing, bound antibodies were detected with peroxidase-labeled secondary antibody and ECL. With the exception of at least nine proteins in the P-Tyr-100 blot (FIG. 1), none of the effectors tested above appeared to be phospho-activated during lacritin signaling (not shown). For mitogenesis (Hussaini et al., '00), [^3H]-thymidine (2 mCi/ml) was added for the next 6 h. Incorporation was stopped with ice-cold phosphate buffered saline and followed by addition of cold and then room temperature trichloracetic acid (10%) for 10 min each, washing of cells with phosphate buffered saline, solubilization with 1 N sodium hydroxide, neutralization with 1 N hydrochloric acid, addition of scintillation fluid and then quantitation in a scintillation counter. To deplete PKCα in HSG cells, a pool of four PKCα-specific siRNAs (100 nM) were transfected via LipofectAMINE 2000 in Opti-MEMI Reduced Serum Medium (Invitrogen, Grand Island N.Y.) without serum and antibiotics according to manufacturer's instructions. Each of the four siRNAs was also individually transfected. In negative controls, cells were transfected with a pool of four lamin-specific siRNAs (Upstate LLC, Charlottesville Va.; Dharmacon Inc, Lafayette Colo.). Seventy-two hours post-transfection, mitogenesis was assessed by co-addition of 10 […] lacritin and [^3H]-thymidine (2 mCi/ml) (Amersham, Piscataway N.J.) for 24 hrs. PKCα depletion was confirmed by Western blotting.
We imaged PKCα in cells 15 min after treatment (FIG. 8). Nonmitogenic construct/fragment C-25 (10 nM) had no effect, leaving PKCa diffusely distributed throughout the cytoplasm. […] The phosphorylation state of PKCα influences its translocation site. Hyperphosphorylated PKCα becomes associated with the plasma membrane whereas hypophosphorylated or dephosphorylated PKCα is known to translocate to the perinuclear Golgi region. To determine if the latter is true and if so over what time course, we treated cells with lacritin, N-24 and C-25, and then blotted cell lysates for phospho-PKC ? (FIG. 8B). 10 nM lacritin promotes PKC ? dephosphorylation within 1 min of addition. This form is sustained for at least 15 min, but by 30 min has returned to baseline phosphorylation. Dephosphorylation triggered by increasing molar levels of lacritin or N-24 mirrored the proliferation response with optimal dephosphorylation at 10 nM. Non-mitogenic C-25 had no effect, whereas positive control 4β-phorbol 12-myristate 13-acetate-promoted hyperphosphorylation.

NFATC1 = NFATC1 translocation in HSG cells (immunofluorescence); assay type: cell-based, human; details: for NFATC1 translocation: HSG and corneal epithelial cells
Text: In order to dissect the molecular pathways leading to the cell survival by lacritin, protein kinases and transcriptional factors were studied by Western blotting and immunofluorescence microscopy. […] On the other hand, there were increased activities of transcriptional factors such as nuclear factor of activated T-cells (NFAT) and NF-kappaB. In FIG. 4, translocation of PKC alpha and NFAT was detected by immunofluorescence coupled with confocal microscopic imaging. In resting HSG cells (left three images), PKC alpha distributes mainly in cytosol and membrane. Similarly, NFATc1 was also found to localize largely in cytosol. Cellular co-location of PKC alpha and NFATc1 is apparent upon merging the two immunofluorescent images, as the merged cy3 and FITC labels produce distinctive yellow color.
Images were acquired at 2-3 s intervals using LaserSharp2000 software (Bio-Rad) and store on disc for later analysis. For translocation assays, HSG cells […] phorbol 12-myristate 13-acetate, […], then washed with phosphate-buffered saline, formaldehyde-fixed, blocked with phosphate-buffered saline containing 1% bovine serum albumin and 10% goat serum, incubated with anti-PKCα (C-20) or anti-NFATC1 (mab 7A6) (both from Santa Cruz Biotechnology Inc.; Santa Cruz, Calif.) followed by secondary Cy3-, FITC- or Alexa488-labeled antibodies and confocal microscopic visualization (Bio-Rad Radiance2100).

[1] = test system: human corneal epithelial (HCE) cell line; assay: TNF-α-induced cell death in HCE cells (MTT cell viability); assay type: cell-based; details: for protection from TNF-induced cell death (viability): 18 or 30 hours, FIG. 10
Procedure: (§1) Lacritin-induced proliferation and calcium signaling was studied in the human corneal epithelial (HCE) cell line. HCE cells were grown at 37° C. in DMEM F/12 supplemented with 10% FBS and 50 μg/ml gentamicin. Each experiment was done in a dose- and time-dependent manner using TNF-α (5-20 ng/ml) and lacritin (1-10 nM). Cell viability was measured spectrophotometrically at an absorbance of 570 nm using the MTT assay. Caspase-8 activity was detected fluorometrically by measuring cleavage of the fluorogenic substrate IETD-pNA at an excitation wavelength of 405 nm. Lacritin-induced cell proliferation was studied by H3-thymidine incorporation and via fluorescence-based detection of PKC, PLC and cAMP. Calcium signaling was detected by confocal microscopy of Fluo-4 loaded cells.

caspase-9 = assay: Caspase-9 activity in human corneal epithelial cells treated with TNF-α; assay type: cell-based; details: lacritin polypeptides 10 nM
Procedure: FIG. 13 graphically illustrates the ability of lacritin polypeptides (10 nM) to block TNFα induced caspase-9 activity in human corneal epithelial cells. The ordinate represents relative fluorescence units. White bars indicate 6 hours and diagonally-hatched bars indicate 9 hours.
Caspase-9 activity was measured in cells treated with various combinations of TNF-α, fragments of lacritin, and the PKC inhibitor Go6976. […] The PKC-α inhibitor Go6976 and C-25 fail to block this increase of the downstream initiator caspase-9.

caspase-8 = assay: Caspase-8 activity in human corneal epithelial cells treated with TNF-α; assay type: cell-based
Procedure: FIG. 12 graphically illustrates the ability of lacritin polypeptides to block TNFα induced caspase-8 activity in human corneal epithelial cells. The ordinate represents relative fluorescence units. White bars indicate 1 hour and diagonally-hatched bars indicate 6 hours.
as §1

Molecule | effect on lacritin-dependent PKCα dephosphorylation (PKCα; pertussis toxin 100 ng/ml, Go 6976, U73122, U73343 1 μM) | effect on lacritin-dependent NFATC1 translocation (NFATC1; cyclosporine 1 μM, nifedipine 10 μM) | protection from TNF-induced cell death (viability) [1] | effect on TNF-α-induced caspase-9 activity (caspase-9) | effect on TNF-α-induced caspase-8 activity (caspase-8) | time dephosphorylated form is sustained (PKCα; 10 nM lacritin) | time of return to baseline phosphorylation (PKCα; 10 nM lacritin) [min] | time to PKCα dephosphorylation (PKCα; 10 nM lacritin) [min] | concentration of optimal dephosphorylation (PKCα) [nM] | NFATC1 translocation (NFATC1) | NFAT localization (NFATC1; lacritin treatment for 1 hour, immunofluorescence) | effect on TNF-α-induced cell death ([1]; lacritin 10 nM pretreatment)
Cn1c2ccccc2c2c3c(c4c5ccccc5n(CCC#N)c4c21)CNC3=O [Go 6976] | inhibited | inhibited | no effect on viability loss | fail to block | fail to block |  |  |  |  |  |  | 
B1 |  |  | protect | blocked | completely blocked | at least 15 min | ≤ 30 | ≤ 1 | 10 | translocates into the nucleus | translocates into nuclear compartment | attenuated
B2 |  |  | protect | blocked | blocked |  |  |  | 10 | translocates into the nucleus |  | 

From patent publication US7648964B2, “Use of lacritin in promoting ocular cell survival” (University of Virginia Patent Foundation, priority 2004, dated 2010)
